Results as given in paper PMC7891936.

Molecular target: Recombinant human cartilage oligomeric matrix protein (COMP) (human) (UniProt P49747)
Experiment: atomic force microscopy

Sequence of Recombinant human cartilage oligomeric matrix protein (COMP), P49747 21-757 (natural protein; other documents disagree on this pair) (P49747 21-757): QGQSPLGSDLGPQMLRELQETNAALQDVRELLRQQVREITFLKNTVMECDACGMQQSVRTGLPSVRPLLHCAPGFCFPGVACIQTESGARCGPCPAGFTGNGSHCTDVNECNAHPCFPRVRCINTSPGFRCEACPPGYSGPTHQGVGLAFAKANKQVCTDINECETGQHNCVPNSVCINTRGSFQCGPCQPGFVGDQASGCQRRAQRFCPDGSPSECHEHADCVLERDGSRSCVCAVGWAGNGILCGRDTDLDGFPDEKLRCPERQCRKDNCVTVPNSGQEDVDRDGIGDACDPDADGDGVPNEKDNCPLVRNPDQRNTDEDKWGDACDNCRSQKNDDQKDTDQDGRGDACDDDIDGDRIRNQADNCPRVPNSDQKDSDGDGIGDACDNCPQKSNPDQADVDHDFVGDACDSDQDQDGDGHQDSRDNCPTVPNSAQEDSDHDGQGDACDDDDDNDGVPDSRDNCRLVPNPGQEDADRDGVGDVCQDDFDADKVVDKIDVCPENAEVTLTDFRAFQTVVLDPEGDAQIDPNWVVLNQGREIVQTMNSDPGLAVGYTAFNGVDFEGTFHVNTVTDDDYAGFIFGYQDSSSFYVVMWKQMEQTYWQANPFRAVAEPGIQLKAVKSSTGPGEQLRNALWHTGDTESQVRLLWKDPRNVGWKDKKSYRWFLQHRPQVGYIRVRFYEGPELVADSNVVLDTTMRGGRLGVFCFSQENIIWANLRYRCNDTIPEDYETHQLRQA

Substance: Recombinant human cartilage oligomeric matrix protein (COMP), P49747 21-757 (natural protein; other documents disagree on this pair)
- stoichiometry N: 5
